Measurements published in article PMC6545883.

System: NC(=O)c1ccc[n+]([C@@H]2O[C@H](COP(=O)(O)OP(=O)(O)OC[C@H]3O[C@@H](n4cnc5c(N)ncnc54)[C@H](OP(=O)(O)O)[C@@H]3O)[C@@H](O)[C@H]2O)c1
Test: purified protein
Settings: varied: cofactor

PtmO8 (Streptomyces platensis) was tested, and the Km was “(1.11 ± 0.11) × 10^3 µM”, the Vmax was 3.7 µM/min and the kcat was 110 s⁻¹. The kcat/Km was 100000 M⁻¹ s⁻¹.
